These results are taken from paper PMC11940719, “Assembly Formation of P65 Protein, Featured by an Intrinsically Disordered Region Involved in Gliding Machinery of Mycoplasma pneumoniae” (Biomolecules, 2025).

The target of series [1] is P65 fragment C (tryptic fragment of region II) (Mycoplasma pneumoniae (strain M129-B7)). The series is described as follows: AUC; sedimentation velocity in 150 mM NaCl, 20 mM Tris-HCl (pH 8.0); absorbance scans at 10-minute intervals; C(s) distribution (SEDFIT).
Series [2] concerns the molecule itself. The description is as above.
Series [3] deals with the molecule itself. Described as above. The source holds these as a separate data set.
Series [4] concerns the molecule itself. The series is described as follows: negative staining electron microscopy; proteins at 40 µg/mL stained with 2% uranyl acetate on carbon-coated grids, 80 kV.

Where two headings read alike, the source gives them in different places.

As a reminder, the stoichiometry N is the number of molecules, sites or subunits per partner or assembly. In series [1], “P65 fragment C (tryptic fragment of region II) (domain or fragment)” returned a stoichiometry N of 3.

B1: full-length P65 protein of Mycoplasma pneumoniae (natural protein)
chain: MDINKPGWNQSDQQATAYDPNQQQYYGDGSTYYDPDQAVDPNQAYYPDPNTYPDAAAYYGYGQDGQAYPQDYAQDPNQAYYADPNAYQDPNAYTDPNAYVDPNAYQDPNAYVDPNNYTDPNAYYGYGQDGQAYPQDYAQDPNQAYYADPNAYQDPNAYTDPYYVTSTDPNAYYGQVDNVPALEASDLAYEVTPQEQAAEQELFSEPETKVIREIHEFPFEKIRSYFQTDFDSYNSRLTQLKDKLDNAIFSMRKAIDTVKENSANLQIMKQNFERQLKEQQTQRLTSNTDAEKIGAKINQLEERMQRLSRTMESVEWTKKEPRQEQFDPRFVDPRNFNNYVNNTDTMMSMFEKVLMMNLLRSTTPVQPPVQYFTPQPLTASPRPVYEEPISASFRRRGYRGDEFYE
notes: P65 protein of Mycoplasma pneumoniae strain M129-B7, p65 gene (AGC04228), codon-optimised, in pET-15b (NdeI, BamHI); 405 residues; Forms a multimer of more than 60 subunits (about 3.10 x 10^6 Da) by analytical ultracentrifugation; The printed mass of 49,203 Da probably includes the tag peptide; also called Whole
With B1, in series [2], the “stoichiometry N” value is greater than 60.

B2: P65 fragment D (regions I and II, residues 1-320) (domain or fragment)
chain: MDINKPGWNQSDQQATAYDPNQQQYYGDGSTYYDPDQAVDPNQAYYPDPNTYPDAAAYYGYGQDGQAYPQDYAQDPNQAYYADPNAYQDPNAYTDPNAYVDPNAYQDPNAYVDPNNYTDPNAYYGYGQDGQAYPQDYAQDPNQAYYADPNAYQDPNAYTDPYYVTSTDPNAYYGQVDNVPALEASDLAYEVTPQEQAAEQELFSEPETKVIREIHEFPFEKIRSYFQTDFDSYNSRLTQLKDKLDNAIFSMRKAIDTVKENSANLQIMKQNFERQLKEQQTQRLTSNTDAEKIGAKINQLEERMQRLSRTMESVEWTKKE
notes: P65 protein of Mycoplasma pneumoniae strain M129-B7 (AGC04228), residues 1-320 (regions I and II); No cleavage of the tag is described; The printed theoretical mass of 39,080 Da probably includes the tag peptide; source: E. coli BL21(DE3), soluble fraction, purified (HisTrap HP, size exclusion chromatography)
On to B2, for which, in series [3], the “stoichiometry N” value was determined as 3.

B3: P65 fragment B (residues 185-405) (domain or fragment)
chain: SDLAYEVTPQEQAAEQELFSEPETKVIREIHEFPFEKIRSYFQTDFDSYNSRLTQLKDKLDNAIFSMRKAIDTVKENSANLQIMKQNFERQLKEQQTQRLTSNTDAEKIGAKINQLEERMQRLSRTMESVEWTKKEPRQEQFDPRFVDPRNFNNYVNNTDTMMSMFEKVLMMNLLRSTTPVQPPVQYFTPQPLTASPRPVYEEPISASFRRRGYRGDEFYE
notes: P65 protein of Mycoplasma pneumoniae strain M129-B7 (AGC04228), residues 185-405 by mass spectrometry (26.3 kDa; theoretical 26,279 Da); peptide mass fingerprinting covers at least residues 212-405; source: the digest containing fragment B was used
As for B3, the binding result in series [4] is “binds”.
